Laboratory results taken from patent US20180044653A1, “Mutant Yeast Strain Capable of Degrading Cellobiose” (Institut National de la Recherche Agronomique, priority 2015, published 2018).

Tests used:
A. niger β-glucosidase = details: Yan and Lin, 1997; cited from earlier work
[1] = test system: S. fibuligera β-glucosidase Bgl1; details: Yan and Lin, 1997; cited from earlier work
[2] = Michaelis-Menten kinetics (glucose release); format: biochemical; details: cellobiose
Source text: (§1) When using aryl-substrates, the standard assay method was employed, simply replacing pNPGlc by another substrate as appropriate. For oligosaccharides, the release of glucose was quantified using an enzyme kit (D-Fructose/D-Glucose Assay Kit, liquid stable, Megazyme).

[3] = Specific activity on cellobiose; format: biochemical
Source text: as §1

[4] = β-Glucosidase activity, release of pNP from pNPGlc; format: biochemical; details: for Specific activity: pNPGlc; for activity on pNPGlc of purified enzyme: preliminary characterization, pNPGlc as substrate
Description: β-Glucosidase activity was measured by quantifying the release of pNP (p-nitroplienol) from pNPGlc as described previously (Guo et al., 2011). One unit of pNPGlcase activity was defined as the amount of enzyme required to release 1 μmol pNP per min. Cellobiose phosphorylase activity was assayed by measuring the formation of Glc-1P from cellobiose as described previously (Reichenbecher et al., 1997). One unit of activity (U) was defined as the amount of enzyme required to release 1 μmol Glc-1P per min. All protein concentrations were measured using the Bradford method and bovine serum albumin as a standard (Bradford, 1976).

[5] = Subcellular fractionation and enzyme localization, activity assayed with pNPGlc; format: biochemical, Y. lipolytica; details: for Relative enzyme activity, Cytoplasm: fraction: Cytoplasm; for Relative enzyme activity, Growth medium: fraction: Growth medium; for Relative enzyme activity, Membrane: fraction: Membrane; for Relative enzyme activity, Periplasm: fraction: Periplasm; for Relative enzyme activity, Total: fraction: Total
Description: Fractionation of yeast cells was carried out as described by Cummings and Fowler (1996), with slight modifications. Briefly, yeasts were cultivated until a cellular density of 6×10^7 cells/mL was reached. Then, to quantify total β-glucosidase activity, a 50 mL sample was taken and subjected to centrifugation at 8,000×g for 5 min at 4° C. thus isolating a cell pellet and supernatant. The cell pellet was disrupted in Tris-HCl buffer (50 mM, pH 7.4, 3 mM EDTA and 0.5 mM PMSF) using a MP FastPrep-24 Instrument (MP Biomedicals Inc.). β-Glucosidase activity in both the cell lysate and the supernatant was determined as described earlier in order to estimate total β-glucosidase activity. Using a second 50 mL yeast culture, a cell pellet containing approximately 2×10^8 cells/mL was obtained by centrifugation and then treated with zymolyase 100T at 10 mg/mL (Seikagaku corp roger) in 15 mL of sorbitol buffer (1 M sorbitol, 50 mM Tris-HCl, pH 7.4, 2 mM dithiothreitol, 10 mM MgCl2, 20 mM-sodium azide, 0.5 mM PMSF) at 30° C. with gentle shaking. Protoplast formation was monitored using a microscope until ≧99% of the cells was lysed when. SDS was added (1% SDS w/v). The solid protoplast fraction was then separated from the supernatant by centrifugation (1000 rpm for 5 min at 4° C.) and the latter was designated as the periplasmic fraction. The protoplasts were re-suspended in Tris-HCl buffer (50 mM Tris-HCl, pH 7.4) and disrupted by vortex in the presence of glass beads (0.4-0.45 mm). The homogenate was centrifuged (20,000×g for 2 h at 4° C.) and the supernatant and solid fractions were designated as the cytoplasmic and membrane fraction respectively. Prior to enzyme assays, the membrane fraction was suspended in citrate buffer.
Activity was assayed with pNPGlc.

[6] = Stability depending on pH and temperature (residual glucosidase activity); format: physicochemical
Description: (§2) Optimal temperatures and pH for the activity of Bgl1-His6 and Bgl2 were determined using pNPGlc as the substrate. Assays were either performed at pH 5.0 and various temperatures (30-70° C.), or at 30° C. in variable pH conditions (2.0 to 8.0) using either 50 mM glycine-HCl (pH 2.0), 50 mM citrate/acetate (pH 3.0-7.2), or potassium phosphate (pH 7.0-8.2) buffer. When the temperature was varied, the pH of the citrate buffer was adjusted accordingly. Stability of Bgl1-His6 and Bgl2 depending on pH and temperature was analysed as follows: enzymes were incubated at 30° C. for up to 2 h at various pH values (2.0 to 8.0), or at various temperatures (30-70° C.) for up to 2 h in 50 mM citrate buffer, pH 5.0. Residual glucosidase activity was then assayed at 30° C. in 50 mM citrate buffer, pH 5.0.

[7] = Optimal temperature and pH for activity; format: biochemical; details: pNPGlc
Description: as §2

[8] = Substrate specificity, aryl-glycoside; format: biochemical
Source text: as §1

Molecule: OC[C@H]1O[C@@H](O[C@H]2[C@H](O)[C@@H](O)C(O)O[C@@H]2CO)[C@H](O)[C@@H](O)[C@@H]1O (stereo partly drawn) [Cellobiose]
- Km (A. niger β-glucosidase): 2700 µM
- Km [1]: 2800 µM

B1: Bgl2: β-glucosidase of Y. lipolytica encoded by BGL2 (YALI0B14289g), SEQ ID NO: 6, secreted to the culture medium (protein, listed as Yarrowia lipolytica)
chain: MLAFVLLLTMLLAAALADPFSDKDAYKHSPPYYPAPEIGRVPTDLRWRAALKVAQGMVANMTLLEKVNITTGTGWEMGPCVGNTGTVERLGIKSLCLQDGPLGIRFADLITTFPAGITIASTFSRQLVRERGAAMGRENRRKGVDITLSPVVGPLGRHANGGRIWEGFSADPYLAGKLAAEAVTGIQGQNVMAVVKHMVGNEQEHFRQLGEWQGFGFKDLKQPLSSNIDDRTLNEAYLWPFADAVRANVGSVMCSYQQINGSQGCQNAHILNGKLKEEMGFQGFVMSDWLAQRSGVASVLAGLDMSMPGDGLVWADGVPLMGYELTRSVLNGTIDESRVDDMVTRILTPILYLSITPTDPNFSSWTNDTTSYKYYGAKAGGNVTVNRHIDVRDQYTTKAALDGANAALVLLKNEKKTLPLNPTNIGNLNIFGIGSKTGPLGAVCGENMQCSDGALIEGWGSGSVYPTDYQSPYDAIKERASKDNITIGGTTQSWGNLSNVEILSAAADASVVFVLSDSGESTGIVDGNIGDRNNLTLWHNGDEVVKAVASKNPNTIVVVTTVGPVNLEKWIDNPNVTAVLLTGPAGDFGGRAAASILFGDIAPSGKLPFTIAKNDTDYIPLTTKIPEDGLPQDYFTEGTLLDYKRFDENQVTPRFEFGYGLSYSNITVENLEARYAFPSIPEFLPTPFAPSNPNKPKNAFTPHANESVFPSDIDPLNKYVYPYLNDTSEIFSNETHYPYPEGYSSEQSNSTNINGGAVGGNPALWLSAVYIVHSVSNYGPYDTGVVTQMYIAFPQDNDDLKTAPRQLRGFERSELKVGERQGILYDVQWRDLAVWDVKLQSWRVQRGEYKVYVGHSSRDFVLTTSFTLK
- KM fold lower than those of β-glucosidases from S. fibuligera and A. niger [2]: ~4 fold
- specific activity on cellobiose [3]: 25 units/mg protein
- decrease in specific activity after deglycosylation ([4]; endoglycosidase H treatment, pNPG): 60%
- Specific activity ([4]; purification step: Culture filtrate): 0.23 U/mg
- Specific activity ([4]; purification step: Gel filtration): 25.8 U/mg
- Specific activity ([4]; purification step: Ion exchange): 2.0 U/mg
- Specific activity ([4]; purification step: Ultra filtration): 0.26 U/mg
- activity on pNPGlc of purified enzyme [4]: 25.8 U/mg
- Relative enzyme activity, Cytoplasm [5]: 4.8 ± 0.8%
- Relative enzyme activity, Growth medium [5]: 79.6 ± 1.2%
- Relative enzyme activity, Membrane [5]: 3.7 ± 0.3%
- Relative enzyme activity, Periplasm [5]: 25.8 ± 1.0%
- Relative enzyme activity, Total [5]: 100%
- enzyme activity remained ([6]; 30° C. and 40° C. at pH 5): 100%
- pH range in which enzyme is stable ([6]; 30° C., up to 2 h): 3.5-7.0
- enzyme activity remained ([6]; pH 4.0, 5.0 and 6.0 at 30° C.): 100%
- temperature below which enzyme is stable ([6]; pH 5.0, up to 2 h): below 50 °C
- pH of highest activity ([7]; 30° C.): 4.0
- temperature of highest activity ([7]; pH 5.0): 50 °C
- activity on pNP-α-D-glucopyranoside [8]: Neither enzyme displayed activity
- activity on pNP-β-D-galactopyranoside [8]: Neither enzyme displayed activity
- activity on pNP-β-D-cellobioside relative to pNPGlc ([8]; activity on pNPGlc as benchmark): 27%

B2: Bgl1: β-glucosidase of Y. lipolytica encoded by BGL1 (YALI0F16027g), SEQ ID NO: 4, mainly periplasmic (protein, listed as Yarrowia lipolytica)
chain: MIFSLQLLLTTALAASSPDWYPTPEIGSITSDWADALGESMDILAQLTLPEKVNITTGTGWRGGQCVGNTGAVPRLGIKGLCLQDGPLGVRFADFVNVFPCQNAMAATFDRILVHQRGTAIGRQSRLKGVDVHLGPVVGPLGRHATGGRNWEGFSPDPYLSGKLAFEAILGVQEEGVLATIKHFIGNEQEHYRRAEEWRDGFGFKDLKDAVSSNIEDRALHELYMWPFADAVRANVGSVMCSYNYVNGTQACQNSDLLNGKLKSELGFQGFVMSDWFAQGSGVSNALAGMDMSMPGNDVDELETVFWGEQLTRMVANGTLPEARLDDMVLRILTPLIYFGIDDRTPNFSSFVDTTVGSPHPAAKHSKKVKDVITNYHLDVRDQFAANVALDSARGAVVLLFNDGILPLKNISAIGVFGVGSRLGPNGAVCGENMQCSDGALIEGWGSGTAYPTEYESPYEALHKKASLLEVSVTGTTESWDMRLPLELAGDTDVNIVYVLANSGESTANVDKNLGDRRNVSLWHNGDELINTVASQGQTVVVVTTVGQVDMTAWLNHPNISAVLLTAPAGDYGGKAIADVLFGEVNPSGKLPYTIAANTSDYIPIVTKIPRDGAPQSDFVEGIYLDYKWYDKFERTPLYEFGYGLSYTTYSFSNLHLDVKEISEFLPPRPVPVQVTKPKMTNIDIEDLYVPNDFKMIDGLVYPWILNASAPLADSQTQFPFANGAGHVSDASGGVGGHPWLWSNAVTVTHNTTNCGDVAGRVVSQLYVAFPETLIDSPPVQLRGFDKSKLLNPGESQMTEYNLNWRDLAIWDVELQSWRVQRGEYSVYIGHSSREFELCETFTL
- KM fold lower than those of β-glucosidases from S. fibuligera and A. niger [2]: approximately 10 fold
- specific activity on cellobiose [3]: 108 units/mg protein
- fold more active on pNPGlc than Bgl2 [4]: 5 fold
- activity on pNPGlc of purified enzyme [4]: 102.8 U/mg
- Relative enzyme activity, Cytoplasm [5]: 30.0 ± 0.5%
- Relative enzyme activity, Growth medium [5]: 2.3 ± 0.4%
- Relative enzyme activity, Membrane [5]: 8.1 ± 0.7%
- Relative enzyme activity, Periplasm [5]: 60.7 ± 1.0%
- Relative enzyme activity, Total [5]: 100%
